For four substances, Kd, kon and koff results are on record in patent publication US20180273634A1.

“And” between values parts separate entries of the source, which are not always exact repeats. Identical values can stand only once.

Assay [1] has as its target prostate specific antigen (PSA) (human) (UniProt P07288). The assay can be described thus: SPR, Biacore 3000, PSA amine-coupled on CM4 chip, antibody in flow. On the technique in general: Surface plasmon resonance follows binding to a sensor surface in real time, without labels.
Assay [2] has the same target. Briefly: SPR, Biacore 3000, PSA amine-coupled on CM4 chip, antibody in flow at 12.5-100 nM.
Assay [3] has the same target. Briefly: SPR, Biacore 3000, PSA amine-coupled on CM4 chip, antibody in flow; dissociation followed 8 h.

Chain of prostate specific antigen (PSA) (human) (P07288 25-261 limits assumed): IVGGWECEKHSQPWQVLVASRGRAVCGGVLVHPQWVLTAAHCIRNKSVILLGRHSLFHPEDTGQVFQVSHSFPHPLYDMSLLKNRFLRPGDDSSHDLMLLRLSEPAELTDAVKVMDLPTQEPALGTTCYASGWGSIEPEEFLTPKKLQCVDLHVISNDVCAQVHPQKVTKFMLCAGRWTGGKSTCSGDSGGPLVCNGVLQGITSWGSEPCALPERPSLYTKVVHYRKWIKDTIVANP

On to m5A10-DFO (antibody), for which the Kd (as a rule, the free concentration of one partner at which half of the binding sites on the other are occupied at equilibrium, for simple one-to-one binding) in assay [1] was 0.02 nM. Also, in assay [2], the kon (as a rule, the second-order rate constant of association) was 290000 M⁻¹ s⁻¹. In assay [3], the koff (usually the rate constant with which the complex falls apart) is 6.6e-06 s⁻¹.

m5A10-DOTA (antibody) gave a Kd in assay [1] of 0.02 nM. This substance also gave a kon in assay [2] of 280000 M⁻¹ s⁻¹. This substance also came in with a koff in assay [3] of 6.3e-06 s⁻¹.

The substance m5A10-DTPA (antibody) showed a Kd in assay [1] of 0.02 nM. Moreover, the kon in assay [2] was determined as 270000 M⁻¹ s⁻¹. This substance also returned a koff in assay [3] of 6.3e-06 s⁻¹.

On to murine 5A10 monoclonal antibody (m5A10), for which, in assay [1], the Kd is 0.02 nM. Also, the kon in assay [2] was 290000 M⁻¹ s⁻¹ and 250000 M⁻¹ s⁻¹. In addition, the koff in assay [3] is 6.3e-06 s⁻¹ and 5.4e-06 s⁻¹.
